The chains are these.
B1: DNA polymerase delta subunit 3 (Homo sapiens), Q15054 (parent)
chain: MADQLYLENIDEFVTDQNKIVTYKWLSYTLGVHVNQAKQMLYDYVERKRKENSGAQLHVTYLVSGSLIQNGHSCHKVAVVREDKLEAVKSKLAVTASIHVYSIQKAMLKDSGPLFNTDYDILKSNLQNCSKFSAIQCAAAVPRAPAESSSSSKKFEQSHLHMSSETQANNELTTNGHGPPASKQVSQQPKGIMGMFASKAAAKTQETNKETKTEAKEVTNASAAGNKAPGKGNMMSNFFGKAAMNKFKVNLDSEQAVKEEKIVEQPTVSVTEPKLATPAGLKKSSKKAEPVKVLQKEKKRGKRVALSDDETKETENMRKKRRRIKLPESDSSEDEVFPDSPGAYEAESPSPPPPPSPPLEPVPKTEPEPPSVKSSSGENKRKRKRVLKSKTYLDGEGCIVTEKVYESESCTDSEEELNMKTSSVHRPPAMTVKKEPREERKGPKKGTAALGKANRQVSITGFFQRK

The variants in the assay derive from B1. The following applies: with pcna_human PCNA.
As to MADQLYLENIDEFVTDQNKIVTYKWLSYTLGVHVNQAKQMLYDYVERKRKENSGAQLHVTYLVSGSLIQNGHSCHKVAVVREDKLEAVKSKLAVTASIHVYSIQKAMLKDSGPLFNTDYDILKSNLQNCSKFSAIQCAAAVPRAPAESSSSSKKFEQSHLHMSSETQANNELTTNGHGPPASKQVSQQPKGIMGMFASKAAAKTQETNKETKTEAKEVTNASAAGNKAPGKGNMMSNFFGKAAMNKFKVNLDSEQAVKEEKIVEQPTVSVTEPKLATPAGLKKSSKKAEPVKVLQKEKKRGKRVALSDDETKETENMRKNGGRIKLPESDSSEDEVFPDSPGAYEAESPSPPPPPSPPLEPVPKTEPEPPSVKSSSGENKRKRKRVLKSKTYLDGEGCIVTEKVYESESCTDSEEELNMKTSSVHRPPAMTVKKEPREERKGPKKGTAALGKANRQVSITGFFQRK [K320N;R321G;R322G], the “effect of a mutation on the interaction” value was “disrupting interaction”.

The record behind these values is IntAct's records for PubMed 16000169.
